Substitutions are numbered along the chain they refer to.

The text below walks through data of US20140289906A1, “Compositions Having Dicamba Decarboxylase Activity and Methods of Use” (priority 2013, published 2014).

B1: 12 (protein, listed as Zymoseptoria tritici)
chain: MALGKVAFEEAFALPRFKERTTWWAGLFAVDPEKHTREINDINKLRIEKMDQFGVGYTLLSYTAPGVQDVWQQEEADALAREVNDHVAAEIKGHEDRLGALATLSMHDPQTASAELRRCIKDYGFKGALVNDTQRNDESGTGMIFYDGPEWDVFWSTVQELDVPFYLHPRNPTGVFMEKLWAPRKWLVGPPLSFAQGVSLHLLGMVTNGTFDRFPNLQVIIGHLGEHLPFDLWRINHWFEDIKKPLGLDCKKTIREYFNENIWITTSGHFSTPTLEYCIKEIGAERILFSIDYPFEKFEDACDWYDGVELDGPDTVKKIGRENAKKLFKLGAFKDDSA
B2: 11 (protein)
chain: MALGKIALEEAFALPRFEEKTRWWASLFSVDPETHVKEITDINKLRIEHADKYGVGYQILSYTAPGVQDIWDPVEAQALAVEINDYIAEQIRDKPDRFGAFATLSMHNPQEAASELRRCVQTYGFKGALVNDTQRAGPDGDDMIFYDNASWDIFWQTCTELDVPLYLHPRNPTGTIYEKLWADRKWLVGPPLSFAQGVSLHVLGMVTNGVFDRHPNLQLIMGHLGEHVPFDMWRINHWFEDRKKLLGLAETCKKTIREYFAQNIWITTSGHFSTTTLNFCMAEVGVDRILFSIDYPFETFEDACVWFDGAELNLSDKAKIGRDNAARLFKLGAFRDYDAKVKA
modifications: Aspergillus niger
B3: 17 (protein)
chain: MARGKIALEEAFEVKGMDEEIDAQAALYIAPKDVERYKRQIVSITDERLQLSDQNGIGYSILSLTVPGIQGITDKDKAEKRARDVNNYIHDQIKDHRDRLGAFAALSMHDPRQAGHELRRCVKELGFHGALLNDVQHTGEGDDDQPLFYDQPDYDEFWRVAVELDVPVYLHPAAPLRDTLIYKQSYEDRKYLVGPPQSYCNGVALHLMGIIVNGVFDRFPNLKVIVGHMGERIPFDFWRMDHWVKGVTRPLAEKNGDTVCQKEPLYYFKRNIYITTSGHFSTQNLRYLYEWLGDERMMFSVDFPYERMEHGCQWYDDDAEKIKEALGGRDGYLRVGRDNARRLFKLTKFKDCDAV
modifications: Aspergillus niger
B4: 13 (protein, listed as Metarhizium acridum)
chain: MAHGKVALEEAFALPRLHEKTRWWASLFAVNPDKHAAEMTDITDIRINYMDKHGVGYTILSYTAPGVQDISDPKEAQALAVEINDYVAGAIKNHPDRFGAFATLSMRNPQEAATELKRCVTQYGFKGALVNDTQRAGEDDMIFYDGPEWDVFWSTVEELDVPFYLHPRNPTGSLYEKLWAKRKWLVGPPLSFAQGVSLHVLGMVTNGVFDRHPKLQVVLGHLGEHIPFDMWRINHWFEDVKKPLGLDCKKTIREYFQQNIWITTSGHFSTTTLQFCMAEVGADRILFSIDYPFECFADACDWYDGVPINLVDKAKIGRDNARRLFKLPEFKDSEKHVDA
B5: 15 (protein, listed as Metarhizium anisopliae)
chain: MAQEIAKSHETSTRFAGFAVLPMRDPEAAAKELERAVKKLGFVGALVDHKTAHGNGFCEGNEYDVLWRKAEQLAVPIYLHPSWPTEKQFQQAYAGNYSPTAAGTIGGAMFNWHSEVGHHVLRLYAAGVFDKFPKLKIIIGHFGEMIPYMLDRIREQDHRLGKTGRTFSEVYDENIWITTSGVWSLDPMRCILANTKIDHILYSVDYPFTMNERGLEWFQELEKSGLLSEEDLALIAYKNCEKLLGVKAPTQD
B6: 24 (protein)
chain: MALGKVVLEEAYERPNMKEKSNHEAGLYIAPNDRPRYMRQINDINQERLKLADAHGVGYTIISLTVPGIQGIFDKTEAERVATETNNWAAEQIKNHRDRLGAFACLSMHDPAQAANELRRCVQELGFHGALLCSFQHAGPDGETYLFYDQPKYDVFWKALTELDVPLYIHPAAPTGSILERLYAQRPALIGPPLSFANDVSLHTLGIISNGVFDRFPNLKIIIGHLGEHIPFDFWRIDHWFRDVKKPIADEEGRVMAQKSLYHYFKHNIWLTTSGHFSTPTLKYVVNEIGVDRVLFSVDYPYETTESGCNWWDHDKDAIVEAVGGVDNYYAIGRENAKKLLRLDKFHDSDAR
modifications: Aspergillus niger
B7: 18 (protein, listed as Legionella pneumophila)
chain: MAIVDFETHFITEACIDYLTQRQEVPKLVPELNGAYTMCFTPDVSLFHTSALMEELLSLNEQRLAIMDQAGVTIQVLSLTTINGIDSCPGDENKSTALAREVNDQLYSAIQKHPERFKGFASISPYDVKEGVKELERAISQLGFVGWLTHSNFGQDNYLDDKIYWPLLEAAESLNIPIYLHPNVPIMREFGKYGFALGGSALGFEFDTALCLMRMILGGVFDAFPKLKIMLGHLGETMPFLMERLDHLYRIPDLKPYRPSIQRIPSEVLRQNVYITTSGRFFVPALRYVLEVMGEDRVLFASDYPMESLLDATRFIQDSDLSNQTKQKIFSINAKNLNLI
B8: 20 (protein, listed as Legionella pneumophila)
chain: B7 chain with E31D, K112R, I163T, S173G, P256A
B9: 29 (protein, listed as Pseudovibrio sp.)
chain: MAGRRDFLRKSVAAGVGLTAAAQLSAGGAQATVPDTSNIPLITLEEHFTTPELQSKNTSGDKRLFSGGGSRPELLDVGAGRIADMDEAGIDIQVLSTVTPGASKITGAEGVEFTRKFNTWIAEEVIAAYPNRFRAFATLPLSSPEAAADELERSVREYGFVGTMTYGPIDGKFLDHADYAPLLARAEALGVPIYIHPNWPSPTAMQAYYDGLGDDLTSRILSGPGYGWHQEIAVQCLRLIVGGVFDRFPNLQIVVGHMGEGLPFYYWRVGEDLDRIAQKRLQKPVQQYFHDNLWITTSAFFRDELLNLALATMGEDRVMFSVDYPMASAKVGADWLRAADIPLATKEKIGSKNAMKLLGIDKI
B10: 27 (protein, listed as Aspergillus oryzae)
chain: MALGKIALEEAFALPRFEEKTRWWASLFSTDAETHVKEITDINKIRIEHADKHGVGYQILSYTAPGVQDIWDPVEAQALAVEINDYIAEQVRVNPDRFGAFATLSMHNPKEAADELRRCVEKYGFKGALVNDTQRAGPDGDDMIFYDNADWDIFWQTCTELDVPFYMHPRNPTGTIYEKLWADRKWLVGPPLSFAHGVSLHVLGMVTNGVFDRHPKLQIIMGHLGEHVPFDMWRINHWFEDRKKLLGLAETCKKTIRDYFAENIWITTSGHFSTTTLNFCMAEVGSDRILFSIDYPFETFSDACEWFDNAELNGTDRLKIGRENAKKLFKLDSYKDSSA
B11: 25 (protein, listed as Acidovorax avenae)
chain: MAQGKIGLEEHFAIPETLQDSAGFVPGDYWKELSLRLLDIHERRLREMDENGMEMMILSLNAPAVQAIPDTKKAVEIAVRANDFLAEQVARRPDRFQAFAALPMQDPDLATRELERCMQDLGFRGALVNGFSQVGTPENVVYYDAPQYGDFWAAVERLDAPFYLHPRNPIASWAQIYQGHPWLMGPTWAFAQETAVHALRLMASGLFDRHPGLRIILGHLGEGLPYNMWRVDHRNAWVDMPKGYPAKRKLCDYFHENFYLTTSGNFRTQTLIDALLEVGADRILFSTDWPFENVDHAAHWFDDAAISEADRLKIGRTNALSLFKLPQG
B12: 14 (protein, listed as Talaromyces marneffei)
chain: MARGKVSFEEAYEIPALADKSREQAALYIAPKDLDRYLSEIKSPTGGRLDISNKNGIGYTIYSLTVPGVQGIADKAKAEKHATDVNNWIYNEIKDHRDRMGAFAALSMHDPVQAGQELERCVKKLGFHGALLNNWQHAGTDGETYIFYDHPSYDVFWQKCVELDVPVYLHPSAPSGKVFDTFFKDRRYLIGPPISFAQDVALHTMGLITNGVFDRNPKLKLILGHLGERIPQDLWRTNHWLEDVERPLADSRGDTMSRKPLLYYFKNNIYVTTSGHFSTETVKFVCDYFGADRILFSVDSPYEKIEEGAGWYDKDKDNLTKALGGPQQYLDVGRENAKKLFKLGKYHDCDA
B13: 23 (protein, listed as Aplysina aerophoba)
chain: MAIDIDARSQPGLETARRAMSRRDFLGGAAAFGITAAATTALPASTAAGEEEDLFLLGLEEHFATAELRRLNGIQFPQGTPRFDINDVGAGRIADMDAAGIDIQVLSALTPGAQNLPGAEGVAYARRLNSWVAHEVIPAYPGRFRAFATLPLSEPQAAADELEYAVRELGFLGCMTYGAVDGKFLDHADFVPVLARAETLDVPIYIHPNWASPQVMDTYYNGLGNEWVSRVLSGAGYGWHQEVALQCLRMIASGVFDRFPRLQIIVGHMGEGLPFFYWRFGDDLARITADTLEKPVQQYFHDNFWITTSAFFRDELLRLVLSVMGEDRVMFAVDYPFVSNKVGADWFRAVDLPRNVKEKIAHKNAERLLKIGPF
B14: 124 (protein)
chain: MAQGKVALEEHFAIPETLQDSAGFVPGDYWKELQHRLLDIQDTRLKLMDAHGIETMILSLAAPAVQAIPDRRKAIEIARRANDFLAEECAKRPDRFLAFAALPLQDPDAATEELQRCVNDLGFVGALVNGFSQEGDGQTPLYYDLPQYRPFWGEVEKLDVPFYLHPRNPLPQDSRIYDGHPWLLGPTWAFAQETAVHALRLMASGLFDEHPQLNIILGHMGEGLPYMMWRIDHRVAWGKLPPAYPAKRRFMDYFNENFHITTSGNFRTQTLIDAILEIGADRILFSTDWPFENIDHASDWFNATSIAEADRVKIGRTNARRLFKLDGD
modifications: Dicamba decarboxylase variant clone S03969214
B15: 125 (protein)
chain: B14 chain with Q212R, N214Q, W229Y, V235I, G238V, K239H, L240E, A243R, D328A
modifications: Dicamba decarboxylase variant clone S03970523

The nature of one data set: 14C assay: 14CO2 capture from [14C]-carboxyl-labeled dicamba with IPTG-induced recombinant E. coli cells. The following applies: IPTG-induced recombinant E. coli cells; 14CO2 from [14C]-carboxyl-labeled dicamba.
Take B1: the “Dicamba Decarboxylase Activity” value was “No”.

In the case of B2, the “Dicamba Decarboxylase Activity” value is “Low”.

In the case of B3, the “Dicamba Decarboxylase Activity” value is given as “Low”.

For the molecule B4, the “Dicamba Decarboxylase Activity” value was “No”.

As to B5, the “Dicamba Decarboxylase Activity” value was “Low”.

In the case of B6, the “Dicamba Decarboxylase Activity” value is recorded as “Low”.

As for B7, the “Dicamba Decarboxylase Activity” value is “Low”.

For the molecule B8, the “Dicamba Decarboxylase Activity” value is given as “Low”.

Regarding B9, the “Dicamba Decarboxylase Activity” value is “No”.

On to B10, for which the “Dicamba Decarboxylase Activity” value was “No”.

Consider B11, for which the “Dicamba Decarboxylase Activity” value is given as “Low”.

On to B12, for which the “Dicamba Decarboxylase Activity” value was “Low”.

With B13, the “Dicamba Decarboxylase Activity” value is given as “Low”.

The data set is the same for the next values; noted with them: dicamba decarboxylation activity.
As for B1, the “Enzymatic Detection level” value was “No”.

For B2, the “Enzymatic Detection level” value was “Low”.

Take B3: the “Enzymatic Detection level” value was “Low”.

In the case of B14, the “Enzymatic Detection level” value is “High”.

On to B15, for which the “Enzymatic Detection level” value is given as “High”.

Take B4: the “Enzymatic Detection level” value is “No”.

As to B5, the “Enzymatic Detection level” value is on record as “Low”.

Take B6: the “Enzymatic Detection level” value is “Low”.

As for B7, the “Enzymatic Detection level” value was “Low”.

For B8, the “Enzymatic Detection level” value is given as “Low”.

Turning to B9, the “Enzymatic Detection level” value was “No”.

Regarding B10, the “Enzymatic Detection level” value is recorded as “No”.

On to B11, for which the “Enzymatic Detection level” value is “Low”.

Consider B12, for which the “Enzymatic Detection level” value is “Low”.

For B13, the “Enzymatic Detection level” value is reported as “Low”.
